From article PMC9541865, “Clinical Pharmacology of Insulin Aspart Biosimilar GP40071: Pharmacokinetic/Pharmacodynamic Comparability in Hyperinsulinemic Euglycemic Clamp Procedure” (Clinical Pharmacology in Drug Development, 2022)
Like-named read-outs stand apart in the source and are kept apart here.

What was measured:
[1] = Pharmacokinetics of insulin aspart in plasma during hyperinsulinemic euglycemic clamp (HEC); conditions: healthy male volunteers, N = 26, arithmetic mean (SD); for AUCins.0‐t: single s.c. 0.3 IU/kg into abdomen, ELISA double measurement; for AUCins.0‐t / Cins.max: 8-h HEC, plasma; for Cins.max: ELISA; for AUCins.0‐∞: extrapolated to infinity
Protocol: (§1) This was a phase 1, randomized, double‐blind, two‐center, two‐treatment, single‐dose, two‐period, crossover, 8‐hour HEC study in healthy subjects. The study was conducted simultaneously in 2018 at two clinical sites (Almazov National Medical Research Center, Saint Petersburg, Russia, and Endocrinology Research Centre, Moscow).
(§2) NovoRapid® Penfill® (Novo‐Asp), as a solution for injection (100 IU/mL), by NovoNordisk, Denmark was used as a reference drug. Both drugs were administered subcutaneously into the abdomen using a BD Micro‐Fine 0.5‐mL insulin syringe with an 8‐mm needle. In this study, the dose of insulin aspart was 0.3 IU/kg for each formulation.
(§3) The next morning HEC was performed. Subjects remained in a supine position for the entire procedure. The time of dosing of the investigated insulins was defined as a zero point. Plasma glucose levels were measured to confirm euglycemia state 60 and 30 minutes prior to the dosing. The target value for blood glucose concentrations during the clamp procedure was defined as 90 mg/100 mL and the acceptable glycemic range in this study was set as 80–100 mg/100 mL. After subcutaneous injection of the investigated insulin, intravenous 20% glucose infusion was started once the baseline plasma glucose level decreased by more than 5 mg/100 mL. The glucose infusion rate (GIR) was controlled and adjusted manually using an infusion pump (Infusomat fmS, B. Braun Melsungen AG, Germany) to maintain plasma glucose concentrations of 80–100 mg/100 mL. HEC lasted 8 hours, and during the entire procedure glycemia was measured using a glucose analyzer (StatStrip, Nova Biomedical, USA) and GIR was adjusted accordingly every 5 minutes. The GIR was documented throughout the procedure and was used to reflect the activity of insulin. Glucose infusion could be discontinued earlier if GIR equaled 0 mg/kg/min at three consecutive measurements 6 hours or more after dosing. Blood samples for PK assessment were obtained for 8 hours postdose.
(§4) Pharmacokinetics. During each HEC 21 samples (each 9 mL of venous blood) were collected from all participants at regular time intervals to assess the concentrations of insulin aspart and C‐peptide: 60, 30, 0 minutes predose and 10, 20, 30, 40, 50, 60, 75, 90, 105, 120, 135, 150, 165, 240, 300, 360, 420, 480 minutes postdose. To obtain plasma samples for the bioanalytical part the blood samples were centrifuged at 3000 rpm for 15 minutes, then the supernatant was transferred into clean tubes. Insulin determination in plasma was performed by a validated enzyme immunoassay (EIA) method using a Personal Lab (Adaltis S.r.l., Italy) analyzer. A Mercodia Iso‐Insulin ELISA kit (Mercodia, Sweden) was used to measure total endogenous human insulin and insulin aspart concentrations and then a Mercodia Insulin ELISA kit (Mercodia) was used to quantify specifically the endogenous human insulin concentration. […] The validated lower (LLOQ) and upper (ULOQ) levels of quantification for total insulin assay were 10.00 and 300.00 μIU/mL, and for human insulin assay they were 10.00 and 150.00 μIU/mL.

[2] = tested on: healthy male volunteers; assay: Safety and tolerability (adverse events) in HEC study; format: in vivo, human; conditions: single s.c. 0.3 IU/kg, N = 26; for Number of adverse events (AEs): all transitory and mild, most probably related to the HEC procedure; for Tolerability of single dose: healthy male volunteers
Protocol: Safety evaluation. The safety and tolerability of both studied drugs were also assessed. Throughout the trial, adverse events (AEs) were monitored and all participants underwent physical examination, vital signs assessment, electrocardiogram (ECG) recording, and laboratory blood and urine testing.

[3] = human, in vivo, sc
Protocol: as §1, §2, §3, §4

[4] = tested on: healthy male volunteers; assay: Pharmacodynamics (glucose infusion rate) in hyperinsulinemic euglycemic clamp (HEC); format: in vivo, human; conditions: N = 26, single s.c. 0.3 IU/kg, arithmetic mean (SD); for AUCGIR0‐t / GIRmax: 8-h HEC
Protocol: The PD effect of insulin aspart was evaluated using the manual euglycemic clamp technique, as described previously[7] with adaptations described below.
Before the clamp procedure. Subjects were hospitalized approximately 12 hours before each drug administration. After the baseline physical examination, vital signs measurements, alcohol breath test, and urine drug testing were performed to confirm compliance with the study restrictions. All participants were given a standardized light meal in the evening before the clamp. Subjects fasted for at least 10 hours before the dosing and remained fasted until the end of the clamp.
During the clamp procedure. The next morning HEC was performed.
Pharmacodynamics. As described above, blood glucose values determined every 5 minutes during HEC were used to measure and manually adjust GIR.

| Substance | AUCins.0‐t [1] | Cins.max ([1]; single s.c. 0.3 IU/kg) | tmax ([1]; single s.c. 0.3 IU/kg) | AUCins.0‐∞ ([1]; single s.c. 0.3 IU/kg) | Cases of hyperbilirubinemia [2] | Cases of phlebitis [2] | Number of adverse events (AEs) [2] | Tolerability of single dose [2] | t1/2 [3] | AUCGIR0‐t [4] | GIRmax [4] | tGIRlag (onset of action) [4] | tGIRmax (time to reach GIRmax) [4] | t1/2 ([1]; single s.c. 0.3 IU/kg) |
| --- | --- | --- | --- | --- | --- | --- | --- | --- | --- | --- | --- | --- | --- | --- |
| insulin aspart [GP‐Asp] | 750.86 (163.48) μLU/mL × h | 286.95 (86.53) μLU/ml/mL | 1.51 (0.53) h | 776.90 (166.33) μLU/ml/mL × h | One | one | two | well tolerated | 0.88 (0.31) h | 43.48 (12.43) mg/kg × 60 min | 11.21 (3.43) mg/kg/min | 0.48 (0.21) | 2.75 (0.94) | – |
| insulin aspart [Novo‐Asp] | 716.37 (199.60) μLU/mL × h | 245.58 (72.70) μLU/ml/mL | 1.37 (0.49) h | 745.70 (209.72) μLU/ml/mL × h | One | one | two | well tolerated | – | 42.81 (13.28) mg/kg × 60 min | 10.65 (3.3) mg/kg/min | 0.44 (0.18) | 2.82 (1.02) | 0.93 (0.36) h |
